From patent US20260207767A1 (ANAVEON, published 2026) come the findings set out here.

Numbering of substitutions follows the chain as printed. In names and notes the source's numbering stands.

B1: z2-XVT458 (antibody, IgG1, V domains shown)
VH: QVQLVQSGAEVKKPGASVKVSCKASGYTFTNFYIHWVRQAPGQGLEWMGSIYPNYGDTAYNQKFKDRVTMTVDTSTSTAYMELRSLRSDDTAVYYCARGYSYAMDYWGQGTTVTVSS
VL: DIQMTQSPSSVSASVGDRVTITCSASQGISGDLNWYQQKPGKAPKLLIYHTSSLHSGVPSRFSGSGSGTDFTLTISSLQPEDFATYYCQYYSKDLLTFGGGTKLEIK
notes: full hIgG1; also called XVT458-z2; GH + T071V
B2: XVT458-z2-m5 (antibody, V domains shown)
VH: B1 VH with S50R, D57I
VL: B1 VL with S30Y, L54R, Y90A
notes: IgG format; also called z2_XVT458m5
B3: XVT458-z2-m6 (antibody, V domains shown)
VH: B1 VH with D57I
VL: B1 VL with S53Q, G57D, Y90G
notes: IgG format; also called z2_XVT458m6
B4: XVT458-z2-m4 (antibody, V domains shown)
VH: B1 VH with S50R, D57I
VL: B1 VL with L54R, Y90G
notes: IgG format; also called z2_XVT458m4
B5: 20H02 (antibody, V domains shown)
VH: EVLLVESGGGLVQPGGSLRLSCAASGFTFSSYSMNWVRQAPGKGLEWVSFISSSSPTLYYADSVKGRFTISRDNAKNSLYLQMNSLRDEDTAVYYCARQGLTPFDYWGQGTLVTVSS
VL: EIVMTQSPATLSVFPGERATLSCRASQSVSSYLAWYQQKPGQAPRLLIYGASTRATGIPARVSGSGSGTEFILTISSLQSEDFAVYYCQQYNNWPYTFGQGTKLEIK
notes: used with CH1,2,3 and corresponding CL
B6: 40B20 (antibody, V domains shown)
VH: EVQLVESGGGLVQPGGSLRLSCAASGFTFSSYSMNWVRQAPGKGLQWVSYITSSSNTMYYADSVKGRFTISRDNAKNSLYLQMNSLRDEDTAVYYCASIVGAPFDYWGQGTLVTVSS
VL: B5 VL with F14S, Y32S, V62F, I72T, V85A, Y96F, Q100P, L104V, E105D
notes: as for B5
B7: 25I20 (antibody, V domains shown)
VH: EVQLLESGGNLVQPGGSLRLSCAASGFTFSTYAMSWVRQAPGKGLEWVSTISGTGYSTYFADSVKGRFTISRDNSKNTLFLQMNSLRAEDTAVYYCAKEVYGDYWGQGTLVTVSS
VL: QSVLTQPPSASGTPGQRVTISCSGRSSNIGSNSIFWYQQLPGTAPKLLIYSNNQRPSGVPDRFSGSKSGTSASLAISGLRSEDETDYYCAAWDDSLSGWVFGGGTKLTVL
notes: used with CH1,2,3 and corresponding CL; also called 25120
B8: 22F13 (antibody, V domains shown)
VH: EVQLLESGGGLVQPGGSLRLSCAASGFTFSISAMTWVRQAPGKGLEWVSTISGSGGSTYYSDSVKGRFTISRDNSKNTLYLQINSLRADDTAVYYCAKEVYGDYWGQGTLVTVSS
VL: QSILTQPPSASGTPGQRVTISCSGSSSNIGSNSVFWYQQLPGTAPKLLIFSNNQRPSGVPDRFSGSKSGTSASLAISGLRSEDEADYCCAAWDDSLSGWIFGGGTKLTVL
notes: as for B5
B9: 39F23 (antibody, V domains shown)
VH: QVQLVESGGGVGQPGRSLRLSCAASGFTFSNYGMHWVRQAPGKGLEWVAVIWYDGSKKYYADSVKGRFTISRDNSKNTLYLQMNSLRVEDTAVYYCVGNSGHWGQGTLVTVSS
VL: DIVMTQTPLSLPVTPGEPASISCRSSQSLLDSDDGNTYLDWYLQKPGQSPQLLIYTLSYRASGVPDRFSGSGSGTDFTLKISRVEAEDVGVYYCMQCIEFPHTFGGGTKVEIK
notes: as for B5

T5 sequence (Q15116 25-167 limits assumed): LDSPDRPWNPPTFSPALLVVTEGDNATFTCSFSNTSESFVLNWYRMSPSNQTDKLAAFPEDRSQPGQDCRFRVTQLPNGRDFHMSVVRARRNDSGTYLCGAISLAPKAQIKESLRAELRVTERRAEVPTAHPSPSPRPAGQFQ
T7 sequence (Q15116 25-167 limits assumed): as above
T1 sequence (Q15116 25-167 limits assumed): as above

The first experiment concerns the target T1, recombinant hPD-1 (construct not stated) (human, UniProt Q15116 25-167, limits assumed).
T1 construct: also called huPD-1; Human PD1
As to the kind of experiment: ELISA. Background: An ELISA detects its analyte on a solid surface through an enzyme-linked reagent.
For orientation: EC50 means the concentration at which the effect is half-maximal. Turning to B1, the EC50 was found to be 0.71 nM and the “Max OD” value amounted to 2.91 OD.

For the molecule B2, the EC50 was found to be 0.051 nM and the “Max OD” value was determined as 3.42 OD.

For the molecule B3, the half-maximal effective concentration (EC50) is 0.064 nM and the “Max OD” value was determined as 3.49 OD.

Consider B4, for which the EC50 turned out to be 0.079 nM and the “Max OD” value was determined as 3.3 OD.

The target of a further experiment is T2, recombinant cynoPD-1 (construct not stated) (cynomolgus monkey, UniProt B0LAJ3 25-170).
T2 construct: not shown: probably His as elsewhere
T2 sequence (B0LAJ3 entry or part of it limits assumed): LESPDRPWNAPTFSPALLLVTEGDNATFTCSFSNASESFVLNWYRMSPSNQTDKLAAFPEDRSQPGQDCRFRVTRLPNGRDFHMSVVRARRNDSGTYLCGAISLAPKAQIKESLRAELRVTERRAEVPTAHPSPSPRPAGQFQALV
As to the kind of experiment: ELISA.
With B1, the EC50 worked out at 0.4 nM and the “Max OD” value came out at 3.32 OD.

B2: the EC50 worked out at 0.056 nM and the “Max OD” value was found to be 3.58 OD.

For the molecule B3, the EC50 is 0.071 nM and the “Max OD” value was determined as 3.69 OD.

On to B4, for which the EC50 worked out at 0.098 nM and the “Max OD” value is 3.54 OD.

The target of a further experiment is T3, human PD-1 expressed on cells (human, UniProt Q15116 25-288).
T3 construct: whole, on cells; cell line named under assay; also called CHO-S hPD-1; Raji PD-1
T3 sequence (Q15116 25-288): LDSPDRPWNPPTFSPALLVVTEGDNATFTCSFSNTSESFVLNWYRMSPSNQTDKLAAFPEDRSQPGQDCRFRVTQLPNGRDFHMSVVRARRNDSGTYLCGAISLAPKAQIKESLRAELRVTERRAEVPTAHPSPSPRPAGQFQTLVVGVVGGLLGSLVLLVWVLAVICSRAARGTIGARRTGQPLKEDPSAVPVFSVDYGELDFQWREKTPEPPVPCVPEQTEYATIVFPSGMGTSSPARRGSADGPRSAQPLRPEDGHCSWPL
As to the kind of experiment: flow cytometry, CHO-S hPD-1. How it is done: CHO-S hPD-1 cells were incubated with a 5-fold serial dilution of the indicated humanized antibodies. Antibody binding was detected with goat anti-human IgG-PE. MFI were plotted over the antibody concentration to obtain EC50 values.
(Flow cytometry measures light scatter and fluorescence of single cells or particles in a stream.)
For B1, the EC50 is 4.15 nM and the “Top MFI” value was found to be 45500 MFI.

For a further experiment, the target named is T3, human PD-1 expressed on cells. As to the kind of experiment: flow cytometry, CHO-S hPD-1. The source holds these as a separate data set.
As for B1, the midpoint of the response, the EC50, lay at 5.86 nM and the “Max MFI” value was found to be 40700 MFI.

For the molecule B2, it took 0.84 nM to reach a half-maximal effect (EC50) and the “Max MFI” value was 42400 MFI.

For B3, a half-maximal effect (EC50) was put at 1.56 nM and the “Max MFI” value stood at 39500 MFI.

As to B4, the EC50 was found to be 0.96 nM and the “Max MFI” value came out at 43400 MFI.

The target in a further experiment is T4, cynomolgus PD-1 expressed on cells (cynomolgus monkey, UniProt B0LAJ3 25-288).
T4 construct: also called CHO-S Cyno-PD-1; 293:cyPD1
T4 sequence (B0LAJ3 entry or part of it limits assumed): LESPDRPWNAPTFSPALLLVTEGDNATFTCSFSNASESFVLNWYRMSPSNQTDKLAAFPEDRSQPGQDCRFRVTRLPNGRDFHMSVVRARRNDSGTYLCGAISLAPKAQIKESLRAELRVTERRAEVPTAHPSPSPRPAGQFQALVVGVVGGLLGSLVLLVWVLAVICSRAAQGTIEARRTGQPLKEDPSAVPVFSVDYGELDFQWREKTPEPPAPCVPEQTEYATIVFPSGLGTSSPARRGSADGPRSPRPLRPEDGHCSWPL
As to the kind of experiment: flow cytometry, HEK293 cyPD1.
As for B5, a half-maximal response (EC50) required 0.231 nM.

B6 registered an EC50 of 0.0958 nM.

In turn, B7 returned an EC50 of 0.31 nM.

In the case of B8, a half-maximal effect (EC50) was put at 0.107 nM.

In turn, B9 had an EC50 of 0.0289 nM.

The target of another experiment is T3, human PD-1 expressed on cells. Nature of the experiment: flow cytometry, HEK293 huPD1.
In turn, B5 yielded an EC50 of 0.503 nM.

In the case of B6, the 50% effective concentration (EC50) was determined as 0.162 nM.

Consider B7, for which the EC50 was 0.179 nM.

The molecule B8 displayed an EC50 of 0.2 nM.

As for B9, the EC50 was found to be 0.0189 nM.

A further experiment has as its target T5, hPD-1 Avi-Tag Biotin (AcroBiosystems PD1-H82E4) (human, UniProt Q15116 25-167, biotin on Avi-Tag).
T5 construct: bought; also called human PD-1
As to the kind of experiment: SPR, Ab captured, PD-1 analyte. How it is done: (§1) Anti-human Fc IgG (Jackson) was immobilized on amine reactive CM5 chips (GE Healthcare) using 1×HBS-EP+ running buffer (GE Healthcare). The test antibodies were captured at flow rate 10 μl/min with 30 s contact time. […] Regeneration was carried out with 10 mM Glycine-HCl, pH 1.5 at flow rate 10 μL/min. This protocol is to be used, unless stated otherwise, in determination of Kd wherever used to define the KD of antibodies specified herein, with adaptions where necessary with regard to the nature of the interaction partners.
For orientation: Surface plasmon resonance follows binding to a sensor surface in real time, without labels.
In general, Kd refers to the free concentration of one partner at which half of the binding sites on the other are occupied at equilibrium, for simple one-to-one binding. The koff is a measure of how fast the partners let go of each other. By kon is commonly meant the rate constant with which the complex forms. B1 returned a Kd of 14 nM, a koff of 0.00127 s⁻¹ and a kon of 90700 M⁻¹ s⁻¹.

The target in the next experiment is T6, cynoPD-1 His (AcroBiosystems PD1-C5223) (cynomolgus monkey, UniProt B0LAJ3 25-170).
T6 construct: also called cPD-1; cynomolgus PD-1 His-tagged
Nature of the experiment: SPR, Ab captured, PD-1 analyte. How it is done:
as §1
In turn, B1 returned a Kd of 54.2 nM, a koff of 0.0031 s⁻¹ and a kon of 57200 M⁻¹ s⁻¹.

A further experiment deals with T5, hPD-1 Avi-Tag Biotin (AcroBiosystems …). Nature of the experiment: SPR, Ab captured, PD-1 analyte. The source holds these as a separate data set. How it is done: Anti-human Fc IgG (Jackson) was immobilized on amine reactive CM5 chips (GE Healthcare) using 1×HBS-EP+ running buffer (GE Healthcare). The test antibodies were captured at flow rate 10 μl/min with 30 s contact time. […] Regeneration was carried out with 10 mM Glycine-HCl, pH 1.5 at flow rate 10 μL/min. This protocol is to be used, unless stated otherwise, in determination of Kd wherever used to define the KD of antibodies specified herein, with adaptions where necessary with regard to the nature of the interaction partners. […]
Molecule B1 yielded a Kd of 12.5 nM, a koff of 0.00124 s⁻¹ and a kon of 99200 M⁻¹ s⁻¹.

In turn, B2 gave a Kd of 0.787 nM, a koff of 9.77e-05 s⁻¹ and a kon of 124000 M⁻¹ s⁻¹.

In turn, B3 had a Kd of 0.439 nM, a koff of 0.000101 s⁻¹ and a kon of 231000 M⁻¹ s⁻¹.

In turn, B4 yielded a Kd of 1.22 nM, a koff of 0.000173 s⁻¹ and a kon of 142000 M⁻¹ s⁻¹.

The target of the next experiment is T4, cynomolgus PD-1 expressed on cells. As to the kind of experiment: flow cytometry, CHO-S Cyno-PD-1.
For B1, the “Max MFI” value turned out to be 109 MFI.

With B2, the “Max MFI” value is 335 MFI.

B3: the “Max MFI” value was 59 MFI.

With B4, the “Max MFI” value worked out at 258 MFI.

A further experiment addresses T6, cynoPD-1 His (AcroBiosystems PD1-C5223). As to the kind of experiment: BLI (legend: SPR), Ab on sensor.
For the molecule B5, the Kd is 6.39 nM, the koff was found to be 0.000463 s⁻¹ and the kon amounted to 72500 M⁻¹ s⁻¹.

The molecule B6 showed a Kd of 7.51 nM, a koff of 0.000505 s⁻¹ and a kon of 67300 M⁻¹ s⁻¹.

Consider B7, for which the affinity, expressed as Kd, was 8.38 nM; the koff turned out to be 0.000783 s⁻¹; the kon amounted to 93400 M⁻¹ s⁻¹.

The molecule B8 gave a Kd of 8.45 nM, a koff of 0.000838 s⁻¹ and a kon of 99200 M⁻¹ s⁻¹.

For the molecule B9, the affinity, expressed as Kd, was 1.3 nM; the koff was 0.000294 s⁻¹; the on-rate (kon) was 227000 M⁻¹ s⁻¹.

The next experiment addresses T7, hPD-1 His-tagged (human, UniProt Q15116 25-167).
T7 construct: also called recombinant hPD-1 (AcroBio)
As to the kind of experiment: BLI (legend: SPR), Ab on sensor.
In the case of B5, the Kd came to 2.43 nM, the koff is 0.000221 s⁻¹ and the kon was 90900 M⁻¹ s⁻¹.

As to B6, the dissociation constant (Kd) was 9.61 nM, the koff came to 0.000773 s⁻¹ and the kon is 80500 M⁻¹ s⁻¹.

In the case of B7, binding was characterised by a dissociation constant (Kd) of 1.15 nM, the koff is 0.000101 s⁻¹ and the kon was found to be 87500 M⁻¹ s⁻¹.

In turn, B8 came in with an equilibrium dissociation constant (Kd) of 1.41 nM, a koff of 0.000132 s⁻¹ and a kon of 94000 M⁻¹ s⁻¹.

For the molecule B9, the Kd was determined as 1.03 nM, the koff was determined as 0.000253 s⁻¹ and the kon is 244000 M⁻¹ s⁻¹.

For the next experiment, the target named is T6, cynoPD-1 His (AcroBiosystems PD1-C5223). As to the kind of experiment: SPR; second ka column, taken as cynoPD-1. The procedure:
as §1
Every position in the antibody VH and VL-CDRs was mutated by PCR using a mutagenic primer containing a degenerate codon NNS at a specific CDR position, introducing a combination of all 20 amino acids. The library of single mutants was screened by scFv capture ELISA using a redundancy factor of 4 (on 96-well plate er position). Clones displaying ≥2× ELISA signal compared to the wild-type scFv were sequenced, and clones with unique sequences were re-grown, re-screened by capture ELISA and ranked by dose-dependent ELISA on human and cyno antigens, and by FACS using human antigen expressing cells. Affinity improving mutations were used to design a combinatorial library using the Kunkel method. The library was screened by scFv capture ELISA using the redundancy factor of 4 (4× number of combinations). Clones displaying ≥2× ELISA signal compared to the wild-type scFv were sequenced, and clones with unique sequences were re-grown, re-screened by capture ELISA and ranked by dose-dependent ELISA on human and cyno antigens, and by FACS using human antigen expressing cells.
As for B1, the kon amounted to 73000 M⁻¹ s⁻¹.

B2: the kon was determined as 111000 M⁻¹ s⁻¹.

For B3, the kon came to 213000 M⁻¹ s⁻¹.

With B4, the kon amounted to 134000 M⁻¹ s⁻¹.
